The values below come from PMC3677097, “Structural Basis of Brr2-Prp8 Interactions and Implications for U5 snRNP Biogenesis and the Spliceosome Active Site” (Structure(London, England:1993), 2013).

The test concerns the target Prp8^885–2413 tagged with a calmodulin-binding peptide (CBP) at the N terminus (yeast, UniProt P33334 885-2413). The test is described as follows: pull-down; calmodulin pull-down; CBP-tagged Prp8^885-2413 or its complexes as bait (0.5 μM), prey 1.0 μM; overnight at 4°C in 20 mM HEPES K+ pH 7.8, 300 mM KCl, 1 mM Mg(OAc)2, 2 mM CaCl2, 10 mM β-mercaptoethanol; calmodulin resin 3 hr, eluted with EGTA; SDS-PAGE. The conditions noted are these: both partners purified.

Sequence of Prp8^885–2413 tagged with a calmodulin-binding peptide (CBP) at the N terminus (P33334 885-2413): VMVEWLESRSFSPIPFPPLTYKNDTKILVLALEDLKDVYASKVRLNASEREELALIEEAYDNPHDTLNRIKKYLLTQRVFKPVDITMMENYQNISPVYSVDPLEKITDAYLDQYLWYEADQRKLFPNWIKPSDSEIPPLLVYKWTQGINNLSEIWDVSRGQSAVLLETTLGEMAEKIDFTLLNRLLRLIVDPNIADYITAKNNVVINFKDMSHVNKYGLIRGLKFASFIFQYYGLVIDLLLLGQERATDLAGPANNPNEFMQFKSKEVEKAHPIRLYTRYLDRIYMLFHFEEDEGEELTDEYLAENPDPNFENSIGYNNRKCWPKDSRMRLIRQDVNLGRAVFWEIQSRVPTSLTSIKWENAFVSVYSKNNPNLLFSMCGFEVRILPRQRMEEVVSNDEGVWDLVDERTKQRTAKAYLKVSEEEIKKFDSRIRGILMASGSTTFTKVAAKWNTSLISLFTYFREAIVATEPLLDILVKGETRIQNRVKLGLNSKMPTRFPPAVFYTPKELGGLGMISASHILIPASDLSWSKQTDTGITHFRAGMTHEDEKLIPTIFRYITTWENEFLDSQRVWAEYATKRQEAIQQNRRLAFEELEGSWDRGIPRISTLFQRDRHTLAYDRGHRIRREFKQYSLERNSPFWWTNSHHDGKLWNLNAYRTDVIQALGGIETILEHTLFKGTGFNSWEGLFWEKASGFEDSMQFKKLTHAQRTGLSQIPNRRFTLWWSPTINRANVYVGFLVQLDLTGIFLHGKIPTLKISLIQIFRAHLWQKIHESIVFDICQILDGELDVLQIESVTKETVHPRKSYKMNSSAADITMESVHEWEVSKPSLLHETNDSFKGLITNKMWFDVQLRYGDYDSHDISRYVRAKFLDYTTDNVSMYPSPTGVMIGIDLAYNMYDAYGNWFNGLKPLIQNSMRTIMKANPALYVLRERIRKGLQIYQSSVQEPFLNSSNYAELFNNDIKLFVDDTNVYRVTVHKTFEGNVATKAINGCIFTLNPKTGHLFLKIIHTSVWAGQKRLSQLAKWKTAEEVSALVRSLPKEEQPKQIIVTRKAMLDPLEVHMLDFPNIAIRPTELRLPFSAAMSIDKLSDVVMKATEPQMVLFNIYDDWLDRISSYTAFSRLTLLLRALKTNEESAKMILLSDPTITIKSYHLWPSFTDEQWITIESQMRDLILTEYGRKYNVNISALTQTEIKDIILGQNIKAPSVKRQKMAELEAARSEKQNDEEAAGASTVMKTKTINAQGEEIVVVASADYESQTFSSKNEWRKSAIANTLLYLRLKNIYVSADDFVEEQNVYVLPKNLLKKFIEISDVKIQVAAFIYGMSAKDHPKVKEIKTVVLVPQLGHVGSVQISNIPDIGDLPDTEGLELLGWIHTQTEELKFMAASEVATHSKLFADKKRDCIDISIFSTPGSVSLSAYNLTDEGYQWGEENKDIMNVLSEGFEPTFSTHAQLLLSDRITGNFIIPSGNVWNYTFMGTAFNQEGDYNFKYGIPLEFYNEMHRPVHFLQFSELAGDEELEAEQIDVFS

B1: Aar2 (natural protein, yeast, UniProt P32357 1-355, looked up)
chain: MNTVPFTSAPIEVTIGIDQYSFNVKENQPFHGIKDIPIGHVHVIHFQHADNSSMRYGYWFDCRMGNFYIQYDPKDGLYKMMEERDGAKFENIVHNFKERQMMVSYPKIDEDDTWYNLTEFVQMDKIRKIVRKDENQFSYVDSSMTTVQENELLKSSLQKAGSKMEAKNEDDPAHSLNYTVINFKSREAIRPGHEMEDFLDKSYYLNTVMLQGIFKNSSNYFGELQFAFLNAMFFGNYGSSLQWHAMIELICSSATVPKHMLDKLDEILYYQIKTLPEQYSDILLNERVWNICLYSSFQKNSLHNTEKIMENKYPELLGKDNEDDALIYGISDEERDDEDDEHNPTIVGGLYYQRP
notes: Aar2, U5 snRNP assembly factor, yeast; also called U5 snRNP assembly factor Aar2
B1: the binding result was “binds”.

B2: Aar2ΔC (missing 23 C-terminal residues) (domain or fragment, yeast, UniProt P32357 1-332, looked up)
chain: MNTVPFTSAPIEVTIGIDQYSFNVKENQPFHGIKDIPIGHVHVIHFQHADNSSMRYGYWFDCRMGNFYIQYDPKDGLYKMMEERDGAKFENIVHNFKERQMMVSYPKIDEDDTWYNLTEFVQMDKIRKIVRKDENQFSYVDSSMTTVQENELLKSSLQKAGSKMEAKNEDDPAHSLNYTVINFKSREAIRPGHEMEDFLDKSYYLNTVMLQGIFKNSSNYFGELQFAFLNAMFFGNYGSSLQWHAMIELICSSATVPKHMLDKLDEILYYQIKTLPEQYSDILLNERVWNICLYSSFQKNSLHNTEKIMENKYPELLGKDNEDDALIYGISD
notes: Aar2, yeast, missing 23 C-terminal residues (so in the source)
B2: the binding result is given as “binds”.
